According to patent US9625458B2, “Biosensor” (priority 2002, dated 2017):
Residue numbers refer to the chain shown, from its start. Names and notes keep the numbering of the source.

B1: ribose BP A234C JPW4039 (conjugate, UniProt P02925 26-296, looked up, variant A234C)
Ribose import binding protein …: KDTIALVVSTLNNPFFVSLKDGAQKEADKLGYNLVVLDSQNNPAKELANVQDLTVRGTKILLINPTDSDAVGNAVKMANQANIPVITLDRQATKGEVVSHIASDNVLGGKIAGDYIAKKAGEGAKVIELQGIAGTSAARERGEGFQQAVAAHKFNVLASQPADFDRIKGLNVMQNLLTAHPDVQAVFAQNDEMALGALRALQTAGKSDVMVVGFDGTPDGEKAVNDGKLAATICQLPDQIGAKGVETADKVLKGEKVQAKYPVDLKLVVKQ
modifications: JPW4039 dye conjugate
B2: ribose BP A234C NBD (conjugate, UniProt P02925 26-296, looked up, variant A234C)
Ribose import binding protein …: B1 Ribose import binding protein …
modifications: NBD conjugate
B3: ribose BP A234C Acrylodan (conjugate, UniProt P02925 26-296, looked up, variant A234C)
Ribose import binding protein …: B1 Ribose import binding protein …
modifications: acrylodan label
B4: ribose BP D165C JPW4045 (conjugate, UniProt P02925 26-296, looked up, variant D165C)
Ribose import binding protein …: B1 Ribose import binding protein … with D165C, C234A
modifications: JPW4045 label
B5: ribose BP L236C JPW4045 (conjugate, UniProt P02925 26-296, looked up, variant L236C)
Ribose import binding protein …: B1 Ribose import binding protein … with C234A, L236C
modifications: JPW4045 dye label
B6: ribose BP L236C JPW4039 (conjugate, UniProt P02925 26-296, looked up, variant L236C)
Ribose import binding protein …: B1 Ribose import binding protein … with C234A, L236C
modifications: JPW4039 dye conjugate
B7: ribose BP E192C NBD (conjugate, UniProt P02925 26-296, looked up, variant E192C)
Ribose import binding protein …: B1 Ribose import binding protein … with E192C, C234A
modifications: NBD dye conjugate
B8: ribose BP E192C Fluorescein (conjugate, UniProt P02925 26-296, looked up, variant E192C)
Ribose import binding protein …: B1 Ribose import binding protein … with E192C, C234A
modifications: fluorescein label
B9: ribose BP L236C Fluorescein (conjugate, UniProt P02925 26-296, looked up, variant L236C)
Ribose import binding protein …: B1 Ribose import binding protein … with C234A, L236C
modifications: fluorescein conjugate
B10: ribose BP D165C Acrylodan (conjugate, UniProt P02925 26-296, looked up, variant D165C)
Ribose import binding protein …: B1 Ribose import binding protein … with D165C, C234A
modifications: acrylodan conjugate
B11: ribose BP D165C JPW4039 (conjugate, UniProt P02925 26-296, looked up, variant D165C)
Ribose import binding protein …: B1 Ribose import binding protein … with D165C, C234A
modifications: JPW4039 dye conjugate
B12: ribose BP A234C JPW4042 (conjugate, UniProt P02925 26-296, looked up, variant A234C)
Ribose import binding protein …: B1 Ribose import binding protein …
modifications: JPW4042 dye conjugate
B13: ribose BP E192C JPW4039 (conjugate, UniProt P02925 26-296, looked up, variant E192C)
Ribose import binding protein …: B1 Ribose import binding protein … with E192C, C234A
modifications: JPW4039 dye label
B14: ribose BP D165C JPW4042 (conjugate, UniProt P02925 26-296, looked up, variant D165C)
Ribose import binding protein …: B1 Ribose import binding protein … with D165C, C234A
modifications: JPW4042 dye conjugate
B15: ribose BP L236C JPW4042 (conjugate, UniProt P02925 26-296, looked up, variant L236C)
Ribose import binding protein …: B1 Ribose import binding protein … with C234A, L236C
modifications: JPW4042 dye conjugate
B16: phosphate BP A225C JPW4039 (conjugate, UniProt P0AG82 26-346, looked up, variant A225C)
Phosphate-binding protein PstS: EASLTGAGATFPAPVYAKWADTYQKETGNKVNYQGIGSSGGVKQIIANTVDFGASDAPLSDEKLAQEGLFQFPTVIGGVVLAVNIPGLKSGELVLDGKTLGDIYLGKIKKWDDEAIAKLNPGLKLPSQNIAVVRRADGSGTSFVFTSYLAKVNEEWKNNVGTGSTVKWPIGLGGKGNDGIAAFVQRLPGAIGYVEYAYAKQNNLAYTKLISADGKPVSPTEENFCNAAKGADWSKTFAQDLTNQKGEDAWPITSTTFILIHKDQKKPEQGTEVLKFFDWAYKTGAKQANDLDYASLPDSVVEQVRAAWKTNIKDSSGKPLY
modifications: JPW4039 label
B17: phosphate BP N226C JPW4042 (conjugate, UniProt P0AG82 26-346, looked up, variant N226C)
Phosphate-binding protein PstS: B16 Phosphate-binding protein PstS with C225A, N226C
modifications: JPW4042 dye conjugate
B18: phosphate BP S39C Acrylodan (conjugate, UniProt P0AG82 26-346, looked up, variant S39C)
Phosphate-binding protein PstS: B16 Phosphate-binding protein PstS with S39C, C225A
modifications: acrylodan conjugate
B19: phosphate BP S39C NBD (conjugate, UniProt P0AG82 26-346, looked up, variant S39C)
Phosphate-binding protein PstS: B16 Phosphate-binding protein PstS with S39C, C225A
modifications: NBD dye conjugate
B20: phosphate BP A225C NBD (conjugate, UniProt P0AG82 26-346, looked up, variant A225C)
Phosphate-binding protein PstS: B16 Phosphate-binding protein PstS
modifications: NBD conjugate
B21: phosphate BP A225C JPW4045 (conjugate, UniProt P0AG82 26-346, looked up, variant A225C)
Phosphate-binding protein PstS: B16 Phosphate-binding protein PstS
modifications: JPW4045 label
B22: phosphate BP S39C JPW4045 (conjugate, UniProt P0AG82 26-346, looked up, variant S39C)
Phosphate-binding protein PstS: B16 Phosphate-binding protein PstS with S39C, C225A
modifications: JPW4045 dye conjugate
B23: phosphate BP S39C Fluorescein (conjugate, UniProt P0AG82 26-346, looked up, variant S39C)
Phosphate-binding protein PstS: B16 Phosphate-binding protein PstS with S39C, C225A
modifications: fluorescein conjugate
B24: phosphate BP N226C JPW4039 (conjugate, UniProt P0AG82 26-346, looked up, variant N226C)
Phosphate-binding protein PstS: B16 Phosphate-binding protein PstS with C225A, N226C
modifications: JPW4039 dye conjugate
B25: phosphate BP A225C Acrylodan (conjugate, UniProt P0AG82 26-346, looked up, variant A225C)
Phosphate-binding protein PstS: B16 Phosphate-binding protein PstS
modifications: acrylodan conjugate
B26: phosphate BP S39C JPW4042 (conjugate, UniProt P0AG82 26-346, looked up, variant S39C)
Phosphate-binding protein PstS: B16 Phosphate-binding protein PstS with S39C, C225A
modifications: JPW4042 dye label
B27: phosphate BP A225C Fluorescein (conjugate, UniProt P0AG82 26-346, looked up, variant A225C)
Phosphate-binding protein PstS: B16 Phosphate-binding protein PstS
modifications: fluorescein label
B28: phosphate BP A225C JPW4042 (conjugate, UniProt P0AG82 26-346, looked up, variant A225C)
Phosphate-binding protein PstS: B16 Phosphate-binding protein PstS
modifications: JPW4042 dye conjugate
B29: phosphate BP N223C Fluorescein (conjugate, UniProt P0AG82 26-346, looked up, variant N223C)
Phosphate-binding protein PstS: B16 Phosphate-binding protein PstS with N223C, C225A
modifications: fluorescein conjugate
B30: phosphate BP S39C JPW4039 (conjugate, UniProt P0AG82 26-346, looked up, variant S39C)
Phosphate-binding protein PstS: B16 Phosphate-binding protein PstS with S39C, C225A
modifications: JPW4039 dye conjugate
B31: phosphate BP N226C JPW4045 (conjugate, UniProt P0AG82 26-346, looked up, variant N226C)
Phosphate-binding protein PstS: B16 Phosphate-binding protein PstS with C225A, N226C
modifications: JPW4045 dye conjugate

Test: Fluorescence emission spectra without and with saturating ligand (wavelength shift, ΔIstd, ΔRmax)
Set-up: key to ΔIstd: intensity change at λstd normalized to average intensity; key to ΔRmax: ratio change of two emission band areas, unbound vs saturated
Settings: unbound vs ligand-saturated; for ΔIstd: standard intensity change; for ΔRmax: standard ratiometric change
Method: Fluorimetry. All measurements were conducted with an SLM Aminco-Bowman series 2 fluorimeter, with sample stirring at 25° C. Fluorescence emission spectra were acquired with excitation and emission slit widths of 4 and 8 nm, respectively. Photomultiplier tube potential was maintained between 400 and 800 volts. Protein concentrations were in the range of 50 to 1000 nM. Fluorophore-specific excitation was at the following approximate wavelengths: tryptophan, 290 nm; acrylodan, 390 nm; fluorescein, 485 nm; pyrene, 340 nm; NBD and NBDE, 490 nm; JPW4039, 485 nm; JPW4042, 470 nm; JPW4045, 470 nm.
Assessment of fluorescent biosensor function. Fluorescence emission spectra of bPBP-fluorophore conjugates were recorded in the absence and presence of saturating ligand concentrations. Spectral changes were characterized by four parameters: wavelength shift (the difference between the wavelengths of emission maximum in the unbound and ligand-saturated states), direction of intensity change (increase or decrease in intensity at the wavelengths of maximum emission in the two states), standard intensity change (ΔIstd), and standard ratiometric change (ΔR). ΔIstd is defined as the normalized intensity change relative to the average intensity, determined at the wavelength mid-point between the two emission maxima:
[formula] where λstd=(λmax, unbound+λmax, saturated)/2 and I1, I2 are the fluorescence intensities at λstd of each spectrum respectively (FIG. 4A). ΔR is defined in terms of two emission bands, A1 ([λ1, λ2]) and A2 ([λ3, λ4]) (FIG. 4B):
[formula] where ^∘A1, […] the areas in the absence of ligand, and ^∞A1, ^∞A2 the areas in the presence of saturating ligand. A computer program was used to enumerate ΔR for all possible pairs of wavelength bands in the two spectra, to identify the optimal sensing condition, defined as the maximum value of ΔR. Adjustable parameters of the algorithm, and their values used for ΔRmax quantities reported here, are: step size (2 nm), step width (10 nm), minimum integration area limit (fraction of total: 0.1), and maximum integration area limit (fraction of total: 1).

Row | Molecule | ΔIstd | ΔRmax
1 | B1 | 0.37 | 1.29
2 | B2 | 0.28 | 1.63
3 | B3 | 0.01 | 1.18
4 | B4 | 0.04 | 0.77
5 | B5 | 0.25 | 1.70
6 | B6 | 0.08 | 0.29
7 | B7 | 0.00 | 1.67
8 | B8 | 0.12 | 1.31
9 | B9 | 0.02 | 0.29
10 | B10 | 0.00 | 0.37
11 | B11 | 0.13 | 0.36
12 | B12 | 0.06 | 0.99
13 | B13 | 0.44 | 0.34
14 | B14 | 0.06 | 0.27
15 | B15 | 0.55 | 3.58
16 | B16 | 0.36 | 2.86

Row | Molecule | ΔIstd | ΔRmax
17 | B17 | 0.29 | 2.05
18 | B18 | 0.10 | 0.80
19 | B19 | 0.18 | 0.57
20 | B20 | 0.81 | 1.21
21 | B21 | 0.02 | 0.82
22 | B22 | 0.18 | 4.13
23 | B23 | 0.03 | 0.21
24 | B24 | 0.26 | 2.94
25 | B25 | 0.08 | 1.95
26 | B26 | 0.01 | 0.15
27 | B27 | 0.01 | 0.97
28 | B28 | 0.30 | 1.32
29 | B29 | 0.06 | 0.01
30 | B30 | 0.36 | 3.15
31 | B31 | 0.53 | 3.83
